Assay results published in US6051217, “Therapeutic uses of interleukin-3 (IL-3) multiple mutation polypeptides” (G. D. Searle & Co., dated 2000).
Substitutions are numbered along the chain they refer to.

Tests used:
[1] = target: T1, hIL-3 receptor (human, UniProt P26951); experiment: cell-based or functional assay
T1 sequence: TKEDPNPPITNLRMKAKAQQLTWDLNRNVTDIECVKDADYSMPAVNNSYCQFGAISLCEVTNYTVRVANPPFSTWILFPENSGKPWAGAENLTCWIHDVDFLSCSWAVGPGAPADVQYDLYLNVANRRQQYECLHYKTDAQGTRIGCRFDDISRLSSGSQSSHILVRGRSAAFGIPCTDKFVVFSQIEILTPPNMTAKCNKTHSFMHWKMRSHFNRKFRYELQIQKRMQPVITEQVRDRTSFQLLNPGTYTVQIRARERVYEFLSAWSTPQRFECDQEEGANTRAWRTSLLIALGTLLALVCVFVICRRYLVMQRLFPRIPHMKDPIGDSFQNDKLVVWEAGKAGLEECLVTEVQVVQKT

[2] = target: T1, hIL-3 receptor; experiment: cell-based or functional assay; remark: listed apart in the source

B1: pMON13428 polypeptide (ligand)
chain: MANCSIMIDEIIHHLKRPPNPLLDPNNLNSEDMDILMERNLRTPNLLAFVRAVKHLENASGIEPILSNLQPCVPYWTAPPSRTPITIKAGDWQEFRLKLQFYLSTLEQAQEQQ
Relative Biological Activity (AML 193 proliferation) [1]: 0.008 EC50 (1-133)hIL-3 / EC50 mutant

B2: native human interleukin-3, (1-133)hIL-3 (ligand)
chain: MAPMTQTTSLKTSWVNCSNMIDEIITHLKQPPLPLLDFNNLNGEDQDILMENNLRRPNLEAFNRAVKSLQNASAIESILKNLLPCLPLATAAPTRHPIHIKDGDWNEFRRKLTFYLKTLENAQAQQTTLSLAIF
Relative Biological Activity (AML 193 proliferation) [1]: 1 EC50 (1-133)hIL-3 / EC50 mutant
EC50, AML 193 cell proliferation assay [2]: 0.0302 nM

B3: pMON13467 polypeptide (ligand)
chain: MANCSIMIDELIHHLKIPPNPSLDSANLNSEDVSILMERNLRTPNLLAFVRAVKHLENASGIEAILRNLQPCLPSATAAPSRHPIIIKAGDWQEFRLKLQFYLSSLEQAQEQQ
Relative Biological Activity (AML 193 proliferation) [1]: 0.16 EC50 (1-133)hIL-3 / EC50 mutant

B4: pMON13446 polypeptide (ligand)
chain: MAYPETDYKDDDDKNCSIMIDEIIHHLKRPPAPLLDPNNLNAEDVDILMERNLRLPNLESFVRAVKNLENASGIEAILRNLQPCLPSATAAPSRHPIIIKAGDWQEFREKLTFYLVTLEQAQEQQ
Relative Biological Activity (AML 193 proliferation) [1]: 21.5 EC50 (1-133)hIL-3 / EC50 mutant

B5: pMON13390 polypeptide (ligand)
chain: B4 chain with A32N, A42S, V45M, L55T, E59L, S60A, N67H
Relative Biological Activity (AML 193 proliferation) [1]: 20 EC50 (1-133)hIL-3 / EC50 mutant
